Assay results as given in patent publication US20200317802A1.

How the values were obtained:
[1] = biological target: activated human MMP-14 (human) (UniProt P50281)
[2] = biological target: activated human MMP-1 (human) (UniProt P03956)
activated human MMP-1 (human), sequence (P03956 100-469 limits assumed): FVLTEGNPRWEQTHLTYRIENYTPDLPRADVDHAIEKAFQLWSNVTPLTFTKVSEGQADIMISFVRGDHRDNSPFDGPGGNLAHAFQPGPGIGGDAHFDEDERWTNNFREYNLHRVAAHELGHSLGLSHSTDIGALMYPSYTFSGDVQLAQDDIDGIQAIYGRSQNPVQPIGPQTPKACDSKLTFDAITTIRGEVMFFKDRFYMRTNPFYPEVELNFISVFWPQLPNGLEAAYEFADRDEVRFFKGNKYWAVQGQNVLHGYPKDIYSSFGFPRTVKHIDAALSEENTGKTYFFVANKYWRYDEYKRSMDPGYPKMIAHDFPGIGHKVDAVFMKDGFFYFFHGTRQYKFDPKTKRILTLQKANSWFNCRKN

IC50 (read off the curve) (human MMP-14 activity, FRET peptide substrate) [1]: 6 nM
IC50 (read off the curve) (human MMP-1 activity, FRET peptide substrate) [2]: 900 pM
Substance: TIMP2 (from UniProt P16035 27-220)
